{"source": "patent US20240109955A1", "assay_in_all_cases": "cell-based or functional assay", "key": {"[1]": {"biological_target": "SARS-CoV-2 Omicron BQ.1.1 spike protein (SARS-CoV-2)"}, "[2]": {"biological_target": "SARS-CoV-2 Omicron BQ.1 spike protein (SARS-CoV-2)"}, "[3]": {"biological_target": "SARS-CoV-2 Omicron BA.2.75.2 spike protein (SARS-CoV-2)"}, "[4]": {"biological_target": "SARS-CoV-2 Omicron XBB spike protein (SARS-CoV-2)"}, "[5]": {"biological_target": "SARS-CoV-2 Omicron BA.4/5 spike protein (SARS-CoV-2)"}, "[6]": {"biological_target": "SARS-CoV-2 Omicron BF.7 spike protein (SARS-CoV-2)"}, "[7]": {"biological_target": "SARS-CoV-2 Omicron BA.4.6 spike protein (SARS-CoV-2)"}, "[8]": {"biological_target": "SARS-CoV-2 spike (S) protein, Omicron sublineage BQ.1 (SARS-CoV-2)"}, "[9]": {"biological_target": "SARS-CoV-2 spike (S) protein, Omicron sublineage BQ.1.1 (SARS-CoV-2)"}, "[10]": {"biological_target": "SARS-CoV-2 spike (S) protein, Omicron sublineage XBB (SARS-CoV-2)"}, "[11]": {"biological_target": "SARS-CoV-2 spike (S) protein, Omicron sublineage XBB (SARS-CoV-2)", "remark": "listed apart in the source"}, "[12]": {"biological_target": "SARS-CoV-2 spike (S) protein, Omicron sublineage BF.7 (SARS-CoV-2)"}, "[13]": {"biological_target": "SARS-CoV-2 spike (S) protein, Omicron sublineage XBB1.5 (SARS-CoV-2)"}}, "note": "Where two headings read alike, the source gives them in different places.", "data": [{"binder": "MX1041 (bispecific antibody) QTVVTQEPSFSVSPGGTVTLTCGLSSGSVSTAYFPSWYQQTPGQAPRTLIYGTNTRSSGVPDRFSGSILGNKAALTITGAQADDESDYYCVLYMGRGIVVFGGGTKLTVLGGSSGEIVLTQSPGTLSLSPGETATLSCRASQSFSSDLAWYQQKPGQAPRLLIYGASSRATGIPDRFSGSGSGTDFTLTISRLEPADFAVYYCQQYGSSPPVTFGGGTKVEIKGGGGSGGSGSGGGGSASGSGEVQLVESGGGLIQPGGSLRLSCAASGVIVSYNYMNWVRQAPGKGLEWVSVIYSGGSTFYADSVRGRFTISRDNSKNTLYLQMNSLRAEDTAVYYCARDLGPAGAFDIWGLGTMVTVSSGGSSGQVQLVESGGGVVQPGRSLRLSCAASGFTLSSYGMHWVRQAPGKGLEWVAVISYDGSNKYYVDSVKGRFTISRDNSKNTLYLQMNSLRAEDTAVYYCRWAYWELLPDYYYGMDVWGQGTTVTVSSASGGSGDKTHTCPPCPAPELLGGPSVFLFPPKPKDTLMISRTPEVTCVVVDVSHEDPEVKFNWYVDGVEVHNAKTKPREEQYNSYVVSVLTVLHQDWLNGKEYKCKVSNKALPAPIEKTISKAKGQPREPQVYTLPPSRDELTKNQVSLTCLVKGFYPSDIAVEWESNGQPENNYKTTPPVLDSDGSFFKKLTVDKSRWQQGNVFSCSVLHEALHSHYTQKSLSLSPG", "values": [{"measurement": "IC50, pseudovirus neutralization", "setting": "[1]", "value": 0.0493, "unit": "µg/mL"}, {"measurement": "IC80, pseudovirus neutralization", "setting": "[1]", "value": 0.11, "unit": "µg/mL"}, {"measurement": "IC50, pseudovirus neutralization", "setting": "[2]", "value": 0.0429, "unit": "µg/mL"}, {"measurement": "IC80, pseudovirus neutralization", "setting": "[2]", "value": 0.188, "unit": "µg/mL"}, {"measurement": "IC50, pseudovirus neutralization", "setting": "[3]", "value": 0.0129, "unit": "µg/mL"}, {"measurement": "IC80, pseudovirus neutralization", "setting": "[3]", "value": 0.0362, "unit": "µg/mL"}, {"measurement": "IC50, pseudovirus neutralization", "setting": "[4]", "value": 0.0691, "unit": "µg/mL"}, {"measurement": "IC80, pseudovirus neutralization", "setting": "[4]", "value": 0.398, "unit": "µg/mL"}, {"measurement": "IC50, pseudovirus neutralization", "setting": "[5]", "value": 0.012, "unit": "µg/mL"}, {"measurement": "IC80, pseudovirus neutralization", "setting": "[5]", "value": 0.0262, "unit": "µg/mL"}, {"measurement": "IC50, pseudovirus neutralization", "setting": "[6]", "value": 0.00835, "unit": "µg/mL"}, {"measurement": "IC80, pseudovirus neutralization", "setting": "[6]", "value": 0.0304, "unit": "µg/mL"}, {"measurement": "IC50, pseudovirus neutralization", "setting": "[7]", "value": 0.0257, "unit": "µg/mL"}, {"measurement": "IC80, pseudovirus neutralization", "setting": "[7]", "value": 0.0671, "unit": "µg/mL"}]}, {"binder": "A19-46 + E8 + B8 (protein) VH 1: QVQLVESGGGVVQPGRSLRLSCAASGFTLSSYGMHWVRQAPGKGLEWVAVISYDGSNKYYVDSVKGRFTISRDNSKNTLYLQMNSLRAEDTAVYYCRWAYWELLPDYYYGMDVWGQGTTVTVSS VL 1: QTVVTQEPSFSVSPGGTVTLTCGLSSGSVSTAYFPSWYQQTPGQAPRTLIYGTNTRSSGVPDRFSGSILGNKAALTITGAQADDESDYYCVLYMGRGIVVFGGGTKLTVL VH 2: QVTLRESGPALVKPTQTLTLTCTFSGFSLSTRGVCVSWIRQPPGKALEWLAFIDWDDDKYYNTSLKTRLTISKDTSKNQVVLTMTNVHPVDTATYYCARISSHHGSSWCTTFDYWGQGALVTVSA VL 2: DTVMTQSPLSLPVTPGEPASISCRSSQSLLNSNGYNYLDWYVQKPGQSPQLLIYLGSNRASGVPDRFSGSGSGTDFTLKISRVEAEDVGVYYCMQPLQTPLFTFGPGTKVEIK VH 3: EVQLVESGGALIQPGGSLRLSCAASGIIVSANYMSWVRQAPGKGLEWVSVIYSGGSTFYADSVKGRFTISRDNSKNTLYLEMNSLRAEDTAVYYCARDAPILGVSDWGQGTLVTVSS VL 3: EIVMTQSPAILSVSPGERATLSCRASQSVAINLAWYQQKPGQAPRLLIYAASSRATGIPGRFSGSGSETNFTLTISSLQSGDFAVYYCQQYITWPPSYTFGQGTKLEIK", "values": [{"measurement": "IC50, pseudovirus neutralization", "setting": "[8]", "value": 0.016, "unit": "µg/mL"}, {"measurement": "IC80, pseudovirus neutralization", "setting": "[8]", "value": 0.0522, "unit": "µg/mL"}, {"measurement": "IC50, pseudovirus neutralization", "setting": "[9]", "value": 0.0111, "unit": "µg/mL"}, {"measurement": "IC80, pseudovirus neutralization", "setting": "[9]", "value": 0.017, "unit": "µg/mL"}, {"measurement": "IC50, pseudovirus neutralization", "setting": "[10]", "value": 0.0113, "unit": "µg/mL"}, {"measurement": "IC80, pseudovirus neutralization", "setting": "[10]", "value": 0.0177, "unit": "µg/mL"}, {"measurement": "IC50, pseudovirus neutralization", "setting": "[11]", "value": 11.3, "unit": "nM"}, {"measurement": "IC80, pseudovirus neutralization", "setting": "[11]", "value": 17.7, "unit": "nM"}]}, {"binder": "A46 + E12 + E8 (protein) VH 1: QVQLVESGGGVVQPGRSLRLSCAASGFTLSSYGMHWVRQAPGKGLEWVAVISYDGSNKYYVDSVKGRFTISRDNSKNTLYLQMNSLRAEDTAVYYCRWAYWELLPDYYYGMDVWGQGTTVTVSS VL 1: QTVVTQEPSFSVSPGGTVTLTCGLSSGSVSTAYFPSWYQQTPGQAPRTLIYGTNTRSSGVPDRFSGSILGNKAALTITGAQADDESDYYCVLYMGRGIVVFGGGTKLTVL VH 2: EVQLVESGGGLIQPGGSLRLSCAASGVIVSYNYMNWVRQAPGKGLEWVSVIYSGGSTFYADSVRGRFTISRDNSKNTLYLQMNSLRAEDTAVYYCARDLGPAGAFDIWGLGTMVTVSS VL 2: EIVLTQSPGTLSLSPGETATLSCRASQSFSSDLAWYQQKPGQAPRLLIYGASSRATGIPDRFSGSGSGTDFTLTISRLEPADFAVYYCQQYGSSPPVTFGGGTKVEIK VH 3: QVTLRESGPALVKPTQTLTLTCTFSGFSLSTRGVCVSWIRQPPGKALEWLAFIDWDDDKYYNTSLKTRLTISKDTSKNQVVLTMTNVHPVDTATYYCARISSHHGSSWCTTFDYWGQGALVTVSA VL 3: DTVMTQSPLSLPVTPGEPASISCRSSQSLLNSNGYNYLDWYVQKPGQSPQLLIYLGSNRASGVPDRFSGSGSGTDFTLKISRVEAEDVGVYYCMQPLQTPLFTFGPGTKVEIK", "values": [{"measurement": "IC50, pseudovirus neutralization", "setting": "[12]", "value": 12, "unit": "nM"}, {"measurement": "IC80, pseudovirus neutralization", "setting": "[12]", "value": 30.6, "unit": "nM"}, {"measurement": "IC50, pseudovirus neutralization", "setting": "[13]", "value": 37.8, "unit": "nM"}, {"measurement": "IC80, pseudovirus neutralization", "setting": "[13]", "value": 96.7, "unit": "nM"}]}]}
